Laboratory results: the supplement of paper PMC12067230
± gives the uncertainty stated by the source.

B1: A-2-E; numbered along this chain (parent)
chain: EASNCFAIRHFENKFAVETLICFNLFLNSQEKHY

Variants of: B1
Assay: amyloid nucleation score relative to WT ADan (yeast Sup35 reporter selection) (log enrichment difference); higher = more amyloid nucleation
Procedure: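 Deep mutational scan of the ADan peptide fused to the Sup35 nucleation domain (SupN) in S. cerevisiae [psi-pin-], covering all single amino-acid substitutions and stop truncations (truncations = sequence up to the stop). After 24 h Cu2+ induction, cells were selected on -ADE-URA plates for 7 d at 30 °C. The nucleation score is log enrichment (output/input, deep sequencing) minus that of WT ADan, as the error-weighted mean of 3 biological replicates (DiMSum).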

Variant	amyloid nucleation score
EESNCFAIRHFENKFAVETLICFNLFLNSQEKHY	0.464 ± 0.2
EFSNCFAIRHFENKFAVETLICFNLFLNSQEKHY	-1.28 ± 0.2
ECSNCFAIRHFENKFAVETLICFNLFLNSQEKHY	0.581 ± 0.19
EPSNCFAIRHFENKFAVETLICFNLFLNSQEKHY	0.0538 ± 0.21
EGSNCFAIRHFENKFAVETLICFNLFLNSQEKHY	0.0812 ± 0.13
ELSNCFAIRHFENKFAVETLICFNLFLNSQEKHY	-1.51 ± 0.2
EMSNCFAIRHFENKFAVETLICFNLFLNSQEKHY	-1.1 ± 0.24
EHSNCFAIRHFENKFAVETLICFNLFLNSQEKHY	0.353 ± 0.26
EYSNCFAIRHFENKFAVETLICFNLFLNSQEKHY	-0.52 ± 0.22
ERSNCFAIRHFENKFAVETLICFNLFLNSQEKHY	-0.078 ± 0.14
EVSNCFAIRHFENKFAVETLICFNLFLNSQEKHY	-1.22 ± 0.19
ESSNCFAIRHFENKFAVETLICFNLFLNSQEKHY	0.208 ± 0.12
EWSNCFAIRHFENKFAVETLICFNLFLNSQEKHY	-0.655 ± 0.21
EQSNCFAIRHFENKFAVETLICFNLFLNSQEKHY	0.125 ± 0.26
EKSNCFAIRHFENKFAVETLICFNLFLNSQEKHY	-0.117 ± 0.23
ETSNCFAIRHFENKFAVETLICFNLFLNSQEKHY	-0.12 ± 0.14
ENSNCFAIRHFENKFAVETLICFNLFLNSQEKHY	0.137 ± 0.21
EISNCFAIRHFENKFAVETLICFNLFLNSQEKHY	-1.13 ± 0.23
EDSNCFAIRHFENKFAVETLICFNLFLNSQEKHY	0.518 ± 0.22
EASNCFAERHFENKFAVETLICFNLFLNSQEKHY	0.604 ± 0.17
EASNCFAARHFENKFAVETLICFNLFLNSQEKHY	0.49 ± 0.13
EASNCFACRHFENKFAVETLICFNLFLNSQEKHY	0.524 ± 0.14
EASNCFADRHFENKFAVETLICFNLFLNSQEKHY	0.678 ± 0.15
EASNCFAMRHFENKFAVETLICFNLFLNSQEKHY	0.354 ± 0.15

Variant	amyloid nucleation score
EASNCFALRHFENKFAVETLICFNLFLNSQEKHY	0.288 ± 0.099
EASNCFAGRHFENKFAVETLICFNLFLNSQEKHY	0.834 ± 0.11
EASNCFANRHFENKFAVETLICFNLFLNSQEKHY	0.497 ± 0.15
EASNCFAKRHFENKFAVETLICFNLFLNSQEKHY	0.701 ± 0.17
EASNCFAHRHFENKFAVETLICFNLFLNSQEKHY	0.873 ± 0.21
EASNCFAFRHFENKFAVETLICFNLFLNSQEKHY	0.15 ± 0.14
LASNCFAIRHFENKFAVETLICFNLFLNSQEKHY	-1.03 ± 0.17
QASNCFAIRHFENKFAVETLICFNLFLNSQEKHY	-0.0134 ± 0.25
SASNCFAIRHFENKFAVETLICFNLFLNSQEKHY	-0.005 ± 0.23
GASNCFAIRHFENKFAVETLICFNLFLNSQEKHY	0.0173 ± 0.14
MASNCFAIRHFENKFAVETLICFNLFLNSQEKHY	-0.555 ± 0.27
IASNCFAIRHFENKFAVETLICFNLFLNSQEKHY	-1.07 ± 0.3
YASNCFAIRHFENKFAVETLICFNLFLNSQEKHY	0.135 ± 0.22
DASNCFAIRHFENKFAVETLICFNLFLNSQEKHY	-0.0528 ± 0.21
CASNCFAIRHFENKFAVETLICFNLFLNSQEKHY	0.179 ± 0.21
NASNCFAIRHFENKFAVETLICFNLFLNSQEKHY	0.0879 ± 0.31
TASNCFAIRHFENKFAVETLICFNLFLNSQEKHY	-1.09 ± 0.24
KASNCFAIRHFENKFAVETLICFNLFLNSQEKHY	-1.2 ± 0.24
AASNCFAIRHFENKFAVETLICFNLFLNSQEKHY	0.401 ± 0.18
VASNCFAIRHFENKFAVETLICFNLFLNSQEKHY	0.419 ± 0.15
PASNCFAIRHFENKFAVETLICFNLFLNSQEKHY	0.117 ± 0.38
FASNCFAIRHFENKFAVETLICFNLFLNSQEKHY	-1.27 ± 0.26
HASNCFAIRHFENKFAVETLICFNLFLNSQEKHY	-0.752 ± 0.34
WASNCFAIRHFENKFAVETLICFNLFLNSQEKHY	0.00448 ± 0.2

Variant	amyloid nucleation score
RASNCFAIRHFENKFAVETLICFNLFLNSQEKHY	-1.76 ± 0.21
EASNCMAIRHFENKFAVETLICFNLFLNSQEKHY	-0.0809 ± 0.15
EASNCVAIRHFENKFAVETLICFNLFLNSQEKHY	-0.127 ± 0.1
EASNCDAIRHFENKFAVETLICFNLFLNSQEKHY	0.634 ± 0.16
EASNCKAIRHFENKFAVETLICFNLFLNSQEKHY	0.8 ± 0.17
EASNCLAIRHFENKFAVETLICFNLFLNSQEKHY	-0.5 ± 0.11
EASNCSAIRHFENKFAVETLICFNLFLNSQEKHY	0.477 ± 0.11
EASNCGAIRHFENKFAVETLICFNLFLNSQEKHY	0.176 ± 0.11
EASNCYAIRHFENKFAVETLICFNLFLNSQEKHY	0.351 ± 0.14
EASNCRAIRHFENKFAVETLICFNLFLNSQEKHY	0.678 ± 0.1
EASNCPAIRHFENKFAVETLICFNLFLNSQEKHY	0.53 ± 0.16
EASNCAAIRHFENKFAVETLICFNLFLNSQEKHY	0.0803 ± 0.13
EASNCHAIRHFENKFAVETLICFNLFLNSQEKHY	0.563 ± 0.19
EASNCQAIRHFENKFAVETLICFNLFLNSQEKHY	0.362 ± 0.17
EASNCNAIRHFENKFAVETLICFNLFLNSQEKHY	0.646 ± 0.28
EASNCEAIRHFENKFAVETLICFNLFLNSQEKHY	0.683 ± 0.15
EASNCCAIRHFENKFAVETLICFNLFLNSQEKHY	0.408 ± 0.14
EASNCWAIRHFENKFAVETLICFNLFLNSQEKHY	0.168 ± 0.16
EASNCIAIRHFENKFAVETLICFNLFLNSQEKHY	-0.609 ± 0.19
EASNKFAIRHFENKFAVETLICFNLFLNSQEKHY	-0.223 ± 0.21
EASNQFAIRHFENKFAVETLICFNLFLNSQEKHY	0.396 ± 0.27
EASNRFAIRHFENKFAVETLICFNLFLNSQEKHY	0.0293 ± 0.12
EASNLFAIRHFENKFAVETLICFNLFLNSQEKHY	-0.0462 ± 0.12
